Experimental data taken from US20130280162A1.

Target: human uPAR on 293/uPAR cells (human) (UniProt Q03405)
Assay: cell-based or functional assay

uPAR-lockV2 (SMB-GFD/hFc, disulphide-linked homodimer) (Fc fusion), sequence (chain): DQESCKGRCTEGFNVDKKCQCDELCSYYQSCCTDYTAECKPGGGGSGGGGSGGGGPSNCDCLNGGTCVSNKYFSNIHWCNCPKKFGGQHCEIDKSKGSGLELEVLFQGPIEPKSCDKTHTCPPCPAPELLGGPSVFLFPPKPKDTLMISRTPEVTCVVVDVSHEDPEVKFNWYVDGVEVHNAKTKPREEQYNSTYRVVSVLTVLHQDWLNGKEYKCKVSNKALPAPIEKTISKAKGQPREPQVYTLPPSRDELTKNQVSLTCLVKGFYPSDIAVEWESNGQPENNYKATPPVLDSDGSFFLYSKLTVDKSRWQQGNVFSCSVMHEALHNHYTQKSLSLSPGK
human uPAR on 293/uPAR cells (human), sequence (Q03405 23-305): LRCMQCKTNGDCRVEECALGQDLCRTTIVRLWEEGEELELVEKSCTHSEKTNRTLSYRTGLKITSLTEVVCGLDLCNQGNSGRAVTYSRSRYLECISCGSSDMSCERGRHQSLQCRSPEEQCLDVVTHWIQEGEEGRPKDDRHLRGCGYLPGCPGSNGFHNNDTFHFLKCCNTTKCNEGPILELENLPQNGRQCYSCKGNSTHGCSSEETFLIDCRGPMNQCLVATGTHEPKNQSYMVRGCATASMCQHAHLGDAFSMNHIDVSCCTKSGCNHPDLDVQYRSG

- IC50, inhibition of 293/uPAR cell adhesion to VN(1-66)/Fc^RAD (RTCA impedance): 0.59 nM
Substance: uPAR-lockV2 (SMB-GFD/hFc, disulphide-linked homodimer) (Fc fusion)
